Experimental data as given in publication PMC10928113, “Molecular architecture and platelet-activating properties of small immune complexes assembled on heparin and platelet factor 4” (Communications Biology, 2024).
Values joined by “and” are separate entries in the source; they are usually repeats but may differ in a detail not shown here. Equal values may be shown once.

B1: recombinant form of human platelet factor 4 (PF4) (natural protein)
chain: EAEEDGDLQCLCVKTTSQVRPRHITSLEVIKAGPHCPTAQLIATLKNGRKICLDLQAPLYKKIIKKLLES
notes: platelet factor 4 (PF4), human, recombinant; stands as a tetramer in the complexes; also called recombinant PF4; PF4 tetramer
B2: KKO monoclonal anti-PF4/heparin antibody (antibody, V domains shown)
VH: VQLQQSGAELVKPGASVKLSCKASGYTFTNYFIYWVKQRPGQGLEWIGEINPRNGDTDFNEKFESRATLTVDKSSSTAYMQLSSLTSEDSAIYYCTRSPYGNNYGFTYWGQGTLVTVSA
VL: DIQMIQSQKFMSTSVGDRVTVTCKASQNVGTNVAWYQQKPGQSPNALIYSASYRYSGVPDRFTGSGSGTDFTLTITNVQSEDLADYFCQQYNSYPLTFGTGTKLDLK
notes: Whole IgG (measured 152.5 kDa); also called KKO mAb; KKO hybridoma clone 31.2.57.A7; source: KKO hybridoma clone 31.2.57.A7 (ATCC), supernatant, purified (Protein A Sepharose)

Columns and labels:
[1] = target: the molecule itself; assay: native MS; PF4 incubated with UFH, SEC sub-fractions of the small complexes; 150 mM ammonium acetate, pH 6.9; masses by limited charge reduction
[2] = target: T1, recombinant form of human platelet factor 4 (PF4) (human, UniProt P02776); assay: native MS; highest-MW SEC sub-fraction of PF4/UFH small complexes incubated with a nearly equimolar amount of KKO (antibody excess up to 33% also tested); 150 mM ammonium acetate, pH 6.9; limited charge reduction; conditions: both partners purified
T1 construct: platelet factor 4 (PF4), human, recombinant; stands as a tetramer in the complexes; also called recombinant PF4; PF4 tetramer

[3] = target: T1, recombinant form of human platelet …; assay: native MS; PF4·dp20 complexes incubated with a nearly equimolar amount of KKO (0.28 mg/mL and 0.06 mg/mL); 150 mM ammonium acetate, pH 6.9; conditions: both partners purified

| Binder | stoichiometry N [1] | stoichiometry N [2] | stoichiometry N [3] |
| --- | --- | --- | --- |
| B1 | 4 subunits (tetramer) |  |  |
| B2 |  | 1 KKO per complex of one heparin chain and two PF4 tetramers and 2 KKO per complex of one heparin chain and three PF4 tetramers | 1 PF4 tetramer per KKO and 2 PF4 tetramers per KKO |
